Source: patent US11492376B2, “Toxoplasma gondii GRA8-derived recombinant peptides and composition for preventing or treating cancer comprising the same” (Industry—University Cooperation Foundation Hanyang …, priority 2019, dated 2022)

Legend:
[1] = system: mitochondrial targeting of GRA8; assay: Subcellular fractionation: mitochondrial localization of GRA8; assay type: cell-based; conditions: 10 μM peptide, within 6 hours of incubation; 293T cells or BMDM
Procedure: (§1) FIGS. 2A, 2B, 2C, 2D and 2E show the design and expression of an ATRAM-conjugated multifunctional GRA8 peptide (rATRAM-G8-M/AS)-based protein [(A) Subcellular fractionation of 293T cells was performed by expression of GST-GRA8 WT or incubation of WT rGRA8 with (1 μg/ml) BMDM and treatment with several Tat-GRA8 peptides for 6 hours (10 μM). Mitochondrial and cytosolic fractions were fractionated and analyzed for expression of GST by IB. The purity of the fractions was confirmed by blotting for VDAC (mitochondrial protein) and actin (cytosolic protein). (B) A mammalian GST-GRA8 construct was transfected into 293T cells for 12 hours with V5-ATP5A1 or Flag-SIRT3, and treated with several Tat-GRA8 peptides (10 μM) for 6 hours. The 293T cells were used for GST pulldown, followed by IB with αV5 or αFlag. WCL was used for IB with αGST, αV5, αFlag or αActin. (C) The schematic design of ATRAM-GRA8-M/AS and its mutants [ATRAM-G8-M/AS (SEQ ID NO: 1), ATRAM-G8-M (SEQ ID NO: 2), ATRAM (SEQ ID NO: 3)]. (D) 6×His-rATRAM-GRA8-M/AS purified with bacteria and its mutants were analyzed by Coomassie blue staining (left) or αHis immunoblotting (IB; right). (E) BMDM was incubated with rATRAM-GRA8-M/AS and its mutant (20 μg/ml) for indicated times, and cell viability was then measured by an MMT assay. Data represents four independent experiments with similar results (A, B, D and E)]. […]

[2] = system: GRA8-ATP5A1/SIRT3 interaction; assay: GST pulldown of GRA8-ATP5A1/SIRT3 interaction in 293T cells; assay type: cell-based; conditions: 10 μM peptide, within 6 hours of incubation
Procedure: as §1

HCT116 cells = assay: MTT assay of cell viability, HCT116 cells; assay type: cell-based, human
Procedure: (§2) FIGS. 1A, 1B and 1C: confirms that rGRA8 treatment increases HCT116 cell death by mitochondria pathways [(A and B). Various cancer cells were incubated with WT rGRA8 (20 μg/ml) and its mutants for indicated times and then cell viability was measured by MTT analysis (upper) and αATP5A1, αSIRT3 or αActin immunoblotting (lower) was performed. […] The cells were incubated with WT rGRA8 for indicated times and subjected to IP with αLys-AC or αHis and IB with αATP5A1, αATP5C1, αSIRT3, αPGC-1, αPKCα or αActin. Data represents five independent experiments with similar results. Significant differences were determined by comparison with rVector treatment (** P<0.01; *** P<0.001)].
FIGS. 4A, 4B, 4C, 4D and 4E show HCT116 cell death by rATRAM-GRA8-M/AS-induced mitochondrial activation [(A and B) HCT116 cells were incubated with WT rGRA8 or rATRAM-GRA8-M/AS and its mutants for indicated times, and then cell viability was measured with an MTT assay. […] The cells were stimulated with rATRAM-GRA8-M/AS for 1 day and subjected to enzymatic activity of OXPHOS V, and (C) MitoTracker fluorescence signals were assessed by flow cytometry. (D) A bar graph indicates a mitochondrial mass (MFI), and (E) the mtDNA content of BMDM was measured by quantitative real-time PCR. The mtDNA content was normalized by nuclear DNA. Significant differences were determined by comparison with control treatment (** P<0.01; *** P<0.001). Data represents five independent experiments with similar results].
(§3) As described in Non-Patent Document 1, the cell viability for a non-treated group was measured by an MTT assay. After incubation for an indicated time, 5 mg/ml of a 3-(4,5-dimethyl thiazol-2-yl)-2,5-diphenyltetrazoliumbromide (MTT) solution was added to a medium, and the cells were further incubated for 4 hours. Subsequently, all of the medium was removed, the same volume of a dimethyl sulfoxide (DMSO) solution was added for 15 minutes to dissolve formazan. Using a UV/VIS spectrophotometer, each well of a plate was measured at 540 nm to measure relative cell viability.

HT-29 = assay: MTT assay of cell viability, HT-29 cells; assay type: cell-based, human; conditions: 20 μg/ml, over time
Procedure: as §2, §3

ATP5A1, SIRT3 and ATP5C1 = assay: Immunoprecipitation/immunoblotting in HCT116 cells; assay type: cell-based, human; conditions: IP/IB
Procedure: as §2
For immunoprecipitation, cells were obtained, and then lysed in an NP-40 buffer supplemented with a complete protease inhibitor cocktail (Roche). After pre-purification with A/G agarose beads at 4° C. for 1 hour, a whole cell lysate was used for immunoprecipitation with indicated antibodies. […]
For immunoblotting, polypeptides were subjected to electrophoresis (PAGE) with an SDS-polyacrylamide gel, and then transferred to a PVDF membrane (Bio-Rad) for separation. […] Antibody binding was visualized by chemiluminescence (ECL; Millipore) and detected by a Vilber chemiluminescence analyzer (Fusion SL 3; Vilber Lourmat).

HCT116 xenografts = assay: HCT116 xenograft mouse model, antitumor activity; assay type: in vivo, nude mouse; conditions: HCT116 xenograft mice

GRKKRRQRRR (Tat) [reference compound]
blocking of mitochondrial targeting of GRA8 [1]: impossible

GRKKRRQRRR-G-ATATTTTTTR (GRKKRRQRRRGATATTTTTTR; Tat-GRA8-(213-222)) [Tat-GRA8 (aa 213-222)]
blocking of mitochondrial targeting of GRA8 [1]: can effectively block mitochondrial targeting

GRKKRRQRRR-G-YRFTVQTTQN (GRKKRRQRRRGYRFTVQTTQN; Tat-GRA8-(260-269)) [Tat-GRA8 (aa 260-269)]
prevention of GRA8-ATP5A1/SIRT3 interaction [2]: able to effectively prevent

B1: rGRA8: recombinant His-tagged Toxoplasma gondii dense granule antigen 8, 269 amino acids; conventional GRA8-derived peptide (protein)
chain: MALPLRVSATVFVVFAVFGVARAMNGPLSYHPSSYGASYPNPSNPLHGMPKPENPVRPPPPGFHPSVIPNPPYPLGTPAGMPQPEVPPLQHPPPTGSPPAAAPQPPYPVGTPGMPQPEIPPVHRPPPPGFRPEVAPVPPYPVGTPTGMPQPEIPAVHHPFPYVTTTTTAAPRVLVYKIPYGGAAPPRAPPVPPRMGPSDISTHVRGAIRRQPATATTTTTTRNVLLRTAILAAAAATLIALFRQRPLFTEGVRMFPDFQYRFTVQTTQN
modifications: left off: small tags and cut ends
notes: recombinant His-tagged Toxoplasma gondii dense granule antigen 8, 269 amino acids; conventional GRA8-derived peptide
cell death in HCT116 (HCT116 cells; 20 μg/ml, over time, MTT): induced cell death | IC50 (HCT116 cell death) (HCT116 cells; HCT116 cells, MTT (FIG. 4A)): 20 µg/mL | cell death in HT-29 (HT-29): induced cell death | ATP5A1 deacetylation (ATP5A1, SIRT3 and ATP5C1): increased ATP5A1 deacetylation | binding of rGRA8 to ATP5A1, SIRT3 and ATP5C1 (ATP5A1, SIRT3 and ATP5C1): significantly increased | IC50 (antitumor activity in xenograft) (HCT116 xenografts): 10 mg/kg
